Article PMC8129110

Each substance was assayed against Ent1 ENTH domain (S. cerevisiae), wild type (UniProt Q12518) (assay: DLS). Details: complexes assembled in the presence of PIP2; parent: est. 100; read off a plot.
Sequence of UniProt Q12518 (Q12518 whole entry, looked up, the tested form may be a part): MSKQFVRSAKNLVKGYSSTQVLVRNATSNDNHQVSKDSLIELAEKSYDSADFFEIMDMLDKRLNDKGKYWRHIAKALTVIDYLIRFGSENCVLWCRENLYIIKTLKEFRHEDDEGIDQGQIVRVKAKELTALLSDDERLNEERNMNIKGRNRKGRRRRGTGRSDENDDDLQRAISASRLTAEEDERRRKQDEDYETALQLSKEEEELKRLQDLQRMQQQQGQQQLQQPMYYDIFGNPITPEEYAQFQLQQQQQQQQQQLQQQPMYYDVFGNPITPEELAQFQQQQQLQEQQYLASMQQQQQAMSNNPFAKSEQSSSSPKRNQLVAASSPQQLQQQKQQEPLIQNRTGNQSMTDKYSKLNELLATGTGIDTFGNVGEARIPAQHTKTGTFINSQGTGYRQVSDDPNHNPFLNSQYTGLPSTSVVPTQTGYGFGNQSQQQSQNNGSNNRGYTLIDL

Substance	response [% mass]
Sla2 ANTH domain (S. cerevisiae), wild type R25A	32
Sla2 ANTH domain (S. cerevisiae), wild type R29A	27
Sla2 ANTH domain (S. cerevisiae), wild type R3A; I4A; D37R	100

Second part, the substance after the results:

response [% mass]	Substance
100	Sla2 ANTH domain (S. cerevisiae), wild type Q9A; K10A
28	Sla2 ANTH domain (S. cerevisiae), wild type K10A; K13A; K14A
21	Sla2 ANTH domain (S. cerevisiae), wild type R3A

These substances were tested against Sla2 ANTH domain (S. cerevisiae), wild type (assay: DLS). Details: complexes assembled in the presence of PIP2; parent: est. 100; read off a plot.

response [% mass]	Substance
100	Ent1 ENTH domain (S. cerevisiae), wild type (from UniProt Q12518) E54A; D57A; D60A
75	Ent1 ENTH domain (S. cerevisiae), wild type (from UniProt Q12518) E107A
37	Ent1 ENTH domain (S. cerevisiae), wild type (from UniProt Q12518) Y100R
